# From the supplement of paper PMC10567573
# B1: TCEB3B (parent)
# chain: STTALGDKQRKANESKGTRESWDS
# Variants of: B1
# Test: protein stability index of a GFP-peptide fusion (GPS, HEK-293T) (PSI 1-6); higher = more stable
# Conditions: c terminus: a fixed tail appended
# 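Further: lentivirally expressed fusions sorted by FACS into six bins by GFP to DsRed ratio, PSI derived from sequencing read proportions per bin multiplied by bin number.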
row,Variant,protein stability index
1,STTALGDKQRKANESKGTQESWDS,4.49
2,STTALGDKQRKANESKGTAESWDS,4.95
3,STTALGDKQRKANESKGTKESWDS,4.21
4,STTALGDKQRKANESKGTMESWDS,4.8
5,STTALGDKQRKANESKGTSESWDS,4.94
6,STTALGDKQRKANESKGTTESWDS,4.89
7,STTALGDKQRKANESKGTYESWDS,3.37
8,STTALGDKQRKANESKGTCESWDS,4.67
9,STTALGDKQRKANESKGTLESWDS,4.5
10,STTALGDKQRKANESKGTWESWDS,4.17
11,STTAHGDKQRKANESKGTRESWDS,4.25
12,STTAAGDKQRKANESKGTRESWDS,4.37
13,STTAQGDKQRKANESKGTRESWDS,4.57
14,STTAPGDKQRKANESKGTRESWDS,4.37
15,STTAEGDKQRKANESKGTRESWDS,4.57
16,STTANGDKQRKANESKGTRESWDS,4.14
17,STTARGDKQRKANESKGTRESWDS,4.03
18,STTALGDKQRKANESKGGRESWDS,3.81
19,STTALGDKQRKANESKGSRESWDS,4
20,STTALGDKQRKANESKGCRESWDS,4.19
21,STTALGDKQRKANESKGRRESWDS,3.76
22,STTALGDKQRKANESKGARESWDS,4.15
23,STTALGDKQRKANESKGIRESWDS,3.31
24,STTALGDKQRKANESKGKRESWDS,3.61

row,Variant,protein stability index
1,STTALGDKQRKANESKGHRESWDS,3.79
2,STTALGDKQRKANESKGMRESWDS,3.51
3,LTTALGDKQRKANESKGTRESWDS,3.67
4,ITTALGDKQRKANESKGTRESWDS,3.58
5,ATTALGDKQRKANESKGTRESWDS,3.94
6,DTTALGDKQRKANESKGTRESWDS,4.16
7,MTTALGDKQRKANESKGTRESWDS,4.22
8,STTALCDKQRKANESKGTRESWDS,3.74
9,STTALPDKQRKANESKGTRESWDS,4.34
10,STTALQDKQRKANESKGTRESWDS,3.83
11,STTALFDKQRKANESKGTRESWDS,3.12
12,STTALRDKQRKANESKGTRESWDS,4.07
13,STTALSDKQRKANESKGTRESWDS,3.85
14,STTALNDKQRKANESKGTRESWDS,4.38
15,STTALHDKQRKANESKGTRESWDS,3.78
16,STTALLDKQRKANESKGTRESWDS,4.08
17,STTALTDKQRKANESKGTRESWDS,3.81
18,STTALADKQRKANESKGTRESWDS,3.65
19,STTQLGDKQRKANESKGTRESWDS,3.9
20,STTELGDKQRKANESKGTRESWDS,4.14
21,STTLLGDKQRKANESKGTRESWDS,3.49
22,STTKLGDKQRKANESKGTRESWDS,3.78
23,STTPLGDKQRKANESKGTRESWDS,3.88
24,STTALGDKQRKANESKGTRESWDM,4.34

row,Variant,protein stability index
1,STTALGDKQRKANESKGTRESWDY,4.46
2,STTALGDKQRKANESKGTRESWDC,4.07
3,STTALGDKQRKANESKGTRESWDF,4.38
4,STTALGDKQRKANESKGTRESWDT,4.58
5,STTALGDKQRKANESKGTRESWDI,4.26
6,STTALGDKQRKANESKGTRESWDR,3.94
7,STTALGDKQRKANESKGTRESWDV,4.62
8,STTALGDKQRKANESKGTRESWDH,3.97
9,STTALGDKQRKANESKGTRESWDP,4.99
10,STTALGDKQRKANESKGTRESWDN,4.57
11,STTALGDKQRKANESKGTRESWDD,4.54
12,STTALGDKQRKANESKGTRESWDQ,3.84
13,STTALGDKQRKALESKGTRESWDS,3.67
14,STTALGDKQRKAGESKGTRESWDS,3.45
15,STTALGDKQRKATESKGTRESWDS,3.78
16,STTALGDKQRKAEESKGTRESWDS,4.87
17,STTALGDKQRKACESKGTRESWDS,3.83
18,STTALGDKQRKAYESKGTRESWDS,3.22
19,STTALGDKQRKAKESKGTRESWDS,3.65
20,STTALGDKQRKARESKGTRESWDS,3.12
21,STTALGDKQRKAIESKGTRESWDS,3.59
22,STTALGDKQRKAFESKGTRESWDS,3.67
23,STTALGDKQRKANESKGTREVWDS,4.84
24,STTALGDKQRKANESKGTREFWDS,4.18

row,Variant,protein stability index
1,STTALGDKQRKANESKGTRECWDS,4.57
2,STTALGDKQRKANESKGTRETWDS,3.57
3,STTALGDKQRKANESKGTREQWDS,5.22
4,STTALGDKQRKANESKGTRENWDS,5.19
5,STTALGDKQRKANESKGTREEWDS,4.99
6,STTALGDKQRKANESKPTRESWDS,4.42
7,STTALGDKQRKANESKDTRESWDS,4.55
8,STTALGDKQRKANESKHTRESWDS,3.93
9,STTALGDKQRKANESKKTRESWDS,3.65
10,STTALGDKQRKANESKSTRESWDS,3.71
11,STTALGDKQRKANESKTTRESWDS,3.98
12,STTALGDKQRKANESKCTRESWDS,3.8
13,STTALGDKQRKANESKMTRESWDS,3.43
14,STTALGDKQRKANESKGTRESTDS,5.24
15,STTALGDKQRKANESKGTRESRDS,5.82
16,STTALGDKQRKANESKGTRESMDS,5.53
17,STTALGDKQRKANESKGTRESSDS,4.29
18,STTALGDKQRKANESKGTRESVDS,5.12
19,STTALGDKQRKANESKGTRESIDS,5.53
20,STTALGDKQRKANESKGTRESYDS,5.6
21,STTALGDKQRNANESKGTRESWDS,4.39
22,STTALGDKQRWANESKGTRESWDS,3.99
23,STTALGDKQRCANESKGTRESWDS,4.53
24,STTALGDKQREANESKGTRESWDS,4.72

row,Variant,protein stability index
1,STTALGDKQRGANESKGTRESWDS,3.88
2,STTALGDKQRPANESKGTRESWDS,4.23
3,STTALGDKQRRANESKGTRESWDS,3.57
4,STTALGDKQRQANESKGTRESWDS,3.79
5,STTALGDKQRKPNESKGTRESWDS,4.17
6,STTALGDKQRKHNESKGTRESWDS,3.88
7,STTALGDKQRKWNESKGTRESWDS,3.34
8,STTALGDKQRKCNESKGTRESWDS,3.99
9,STTALGDKQRKGNESKGTRESWDS,4.21
10,STTALGDKQRKENESKGTRESWDS,4.49
11,STTALGDKQRKINESKGTRESWDS,3.63
12,STTALGDKQRKDNESKGTRESWDS,4.36
13,STTALGAKQRKANESKGTRESWDS,3.49
14,STTALGFKQRKANESKGTRESWDS,3.24
15,STTALGLKQRKANESKGTRESWDS,2.88
16,STTALGVKQRKANESKGTRESWDS,3.6
17,STTALGWKQRKANESKGTRESWDS,3.39
18,STTALGRKQRKANESKGTRESWDS,3.88
19,STTALGQKQRKANESKGTRESWDS,3.15
20,STTALGPKQRKANESKGTRESWDS,3.5
21,STTALGDKQCKANESKGTRESWDS,3.53
22,STTALGDKQTKANESKGTRESWDS,4.33
23,STTALGDKQVKANESKGTRESWDS,3.54
24,STTALGDKQSKANESKGTRESWDS,4.26

row,Variant,protein stability index
1,STTALGDKQNKANESKGTRESWDS,4.14
2,STTALGDKQHKANESKGTRESWDS,4.24
3,STPALGDKQRKANESKGTRESWDS,4.02
4,STSALGDKQRKANESKGTRESWDS,3.57
5,STLALGDKQRKANESKGTRESWDS,3.83
6,STVALGDKQRKANESKGTRESWDS,4.36
7,STIALGDKQRKANESKGTRESWDS,3.72
8,STTALGDKQRKANNSKGTRESWDS,4.06
9,STTALGDKQRKANDSKGTRESWDS,3.89
10,STTALGDKQRKANASKGTRESWDS,3.15
11,STTALGDKQRKANMSKGTRESWDS,3.65
12,STTALGDKQRKANVSKGTRESWDS,3.34
13,STTALGDKQRKANLSKGTRESWDS,3.9
14,STTALGDKIRKANESKGTRESWDS,3.72
15,STTALGDKTRKANESKGTRESWDS,4.14
16,STTALGDKGRKANESKGTRESWDS,3.62
17,STTALGDKERKANESKGTRESWDS,3.71
18,STTALGDKARKANESKGTRESWDS,3.38
19,STTALGDKNRKANESKGTRESWDS,3.47
20,STTALGDKHRKANESKGTRESWDS,4.26
21,STTALGDKYRKANESKGTRESWDS,3.64
22,STTALGDKKRKANESKGTRESWDS,4.09
23,STTALGDKQRKANESKGTRESWSS,1.78
24,STTALGDKQRKANESKGTRESWAS,4.65

row,Variant,protein stability index
1,STTALGDKQRKANESKGTRESWHS,3.81
2,STTALGDKQRKANESKGTRESWVS,2.56
3,STTALGDKQRKANESKGTRESWNS,4.15
4,STTALGDKQRKANESKGTRESWQS,3.51
5,STTALGDKQRKANESKGTRESWPS,4.76
6,STTALGDKQRKANESKGTRESWLS,1.98
7,STTALGDKQRKANESKGTRESWFS,3.93
8,STTALGDKQRKANESKGTRESWES,1.82
9,STTALGDKQRKANESKGTRESWWS,3.59
10,STTALGDKQRKANESKGTRESWTS,1.05
11,STTALGDKQRKANESKGTRESWIS,2.69
12,STTALGDRQRKANESKGTRESWDS,4.08
13,STTALGDNQRKANESKGTRESWDS,4.15
14,STTALGDLQRKANESKGTRESWDS,4.8
15,STTALGDMQRKANESKGTRESWDS,4.12
16,STTALGDIQRKANESKGTRESWDS,3.98
17,STTALGDKQRKANEVKGTRESWDS,3.38
18,STTALGDKQRKANEYKGTRESWDS,3.64
19,STTALGDKQRKANEAKGTRESWDS,4.69
20,STTALGDKQRKANERKGTRESWDS,3.65
21,STTALGDKQRKANEIKGTRESWDS,3.71
22,STTALGDKQRKANEPKGTRESWDS,4.34
23,STTALGDKQRKANEWKGTRESWDS,3.72
24,STTALGDKQRKANEHKGTRESWDS,3.93

row,Variant,protein stability index
1,STTALGDKQRKANESKGTRMSWDS,4.54
2,STTALGDKQRKANESKGTRKSWDS,5.19
3,STTALGDKQRKANESKGTRISWDS,4
4,STTALGDKQRKANESKGTRDSWDS,4.76
5,STTALGDKQRKANESKGTRSSWDS,4.88
6,STTALGDKQRKANESKGTRASWDS,4.82
7,STTALGDKQRKANESKGTRHSWDS,4.89
8,STTALGDKQRKANESKGTRQSWDS,4.38
9,SWTALGDKQRKANESKGTRESWDS,3.16
10,SCTALGDKQRKANESKGTRESWDS,3.8
11,SATALGDKQRKANESKGTRESWDS,4.32
12,SVTALGDKQRKANESKGTRESWDS,3.67
13,SGTALGDKQRKANESKGTRESWDS,3.49
14,SITALGDKQRKANESKGTRESWDS,3.29
15,SYTALGDKQRKANESKGTRESWDS,3.33
16,STTALGDKQRKANESVGTRESWDS,4.53
17,STTALGDKQRKANESEGTRESWDS,5
18,STTALGDKQRKANESQGTRESWDS,4.24
19,STTALGDKQRKANESRGTRESWDS,4.04
20,STTALGDKQRKANESIGTRESWDS,3.95
